Laboratory results reported in US7033593.
Several values for one entry are separate records, joined by “and”; a condition that tells them apart may be missing. Equal entries are not always repeated.

What was measured:
[1] = biological target: soluble HIV 89.6 gp120 envelope protein (HIV 89.6 (Clade B) primary isolate) (UniProt Q73372)
[2] = biological target: scrambled sequence DP178 peptide; test: SPR SA-chip assay, scrDP178 surface
[3] = biological target: A32-gp120 complex (HIV 89.6 gp120 bound to mab A32) (HIV 89.6 (Clade B) primary isolate) (UniProt Q73372); test: SPR SA-chip assay (FIG. 28B)
[4] = biological target: A32-gp120 complex (HIV 89.6 gp120 bound to mab A32) (HIV 89.6 (Clade B) primary isolate) (UniProt Q73372); test: SPR SA-chip assay, single component
[5] = biological target: soluble HIV 89.6 gp120 envelope protein (HIV 89.6 (Clade B) primary isolate) (UniProt Q73372); remark: listed apart in the source
[6] = biological target: soluble HIV 89.6 gp120 envelope protein (HIV 89.6 (Clade B) primary isolate) (UniProt Q73372); test: SPR SA-chip assay, 89.6 gp120 over scrDP178 surface
[7] = biological target: soluble HIV 89.6 gp120 envelope protein (HIV 89.6 (Clade B) primary isolate) (UniProt Q73372); test: SPR SA-chip assay, gp120 over scrDP178 surface
[8] = biological target: HR-2 peptide DP178 (HIV-1 89.6)
[9] = biological target: soluble CD4 (UniProt P01730); test: SPR, gp120 over immobilised CD4
[10] = biological target: soluble CD4 (UniProt P01730); test: SPR (BIAcore), gp120 and CD4
[11] = biological target: soluble CD4 (UniProt P01730); test: SPR, preliminary experiments

Substance: mAb 48d (antibody)
- % blocking of DP178 binding [1]: 80%

Substance: mab 17b (antibody)
- % blocking of DP178 binding [1]: 80%

Substance: mab 19b (antibody)
- % blocking of DP178 binding [1]: 68%

Substance: mab A32 (antibody)
- RU (background signal) [2]: 10 RU and 20 RU

Substance: scrambled sequence DP178 peptide
- RU [3]: < 200 RU
- koff [4]: 0.017 s⁻¹
- band density [5]: 0.6 ODunits/mm^2
- RU (background signal) [6]: 10 RU and 20 RU
- RU [7]: 50 RU

Substance: soluble HIV 89.6 gp120 envelope protein, Q73372 32-508
- koff [8]: 0.017 s⁻¹

Substance: soluble, monomeric gp120 DH12
- Kd [9]: 0.096 µM
- koff [9]: 0.00047 s⁻¹
- Kd [10]: 0.078 µM
- koff [10]: 0.000386 s⁻¹
- kon [10]: 4900 M⁻¹ s⁻¹
- t1/2 [10]: 30 min
- t1/2 of binding [11]: 25 min

Substance: soluble, monomeric gp120 JRFL
- Kd [9]: 0.146 µM
- koff [9]: 0.00088 s⁻¹
- Kd [10]: 0.15 µM
- koff [10]: 0.000884 s⁻¹
- kon [10]: 6000 M⁻¹ s⁻¹
- t1/2 of binding [11]: 14 min
